Data from patent US20170321240.

Experiments:
[1] = system: Right TALEN Slc35c1 (synthetic construct (Xanthomonas AvrBs3 scaffold)); test: cell_activity; details: TALEN pair with left TALEN, 19-bp spacer; T7E1 assay 72 h, CHO cells
[2] = system: Left TALEN Slc35c1 (synthetic construct (Xanthomonas AvrBs3 scaffold)); test: cell_activity; details: TALEN pair with right TALEN, 19-bp spacer; T7E1 assay 72 h, CHO cells

Row | Substance | activity (% gene modification) [1] | activity (% gene modification) [2]
1 | Slc35c1 exon 1 right TALEN half-site | 7.3 | –
2 | Slc35c1 exon 1 left TALEN half-site | – | 7.3
